Test results published in paper PMC2132938 (The Journal of Cell Biology, 1999).
Like-named read-outs stand apart in the source and are kept apart here. Values belong to the binder of their own block, whether it stands above or below them.

How the values were obtained:
[1] = molecular target: T1, Ran (recombinant human wild-type Ran, charged with GTP or GDP) (human, UniProt P62826 1-216); test: co-IP
[2] = molecular target: T1, Ran (recombinant human wild-type Ran, …); test: co-IP; remark: listed apart in the source

binding result [1]: binds
B1: transportin (human transportin/karyopherin β2, recombinant) (natural protein)
chain: MEYEWKPDEQGLQQILQLLKESQSPDTTIQRTVQQKLEQLNQYPDFNNYLIFVLTKLKSEDEPTRSLSGLILKNNVKAHFQNFPNGVTDFIKSECLNNIGDSSPLIRATVGILITTIASKGELQNWPDLLPKLCSLLDSEDYNTCEGAFGALQKICEDSAEILDSDVLDRPLNIMIPKFLQFFKHSSPKIRSHAVACVNQFIISRTQALMLHIDSFIENLFALAGDEEPEVRKNVCRALVMLLEVRMDRLLPHMHNIVEYMLQRTQDQDENVALEACEFWLTLAEQPICKDVLVRHLPKLIPVLVNGMKYSDIDIILLKGDVEEDETIPDSEQDIRPRFHRSRTVAQQHDEDGIEEEDDDDDEIDDDDTISDWNLRKCSAAALDVLANVYRDELLPHILPLLKELLFHHEWVVKESGILVLGAIAEGCMQGMIPYLPELIPHLIQCLSDKKALVRSITCWTLSRYAHWVVSQPPDTYLKPLMTELLKRILDSNKRVQEAACSAFATLEEEACTELVPYLAYILDTLVFAFSKYQHKNLLILYDAIGTLADSVGHHLNKPEYIQMLMPPLIQKWNMLKDEDKDLFPLLECLSSVATALQSGFLPYCEPVYQRCVNLVQKTLAQAMLNNAQPDQYEAPDKDFMIVALDLLSGLAEGLGGNIEQLVARSNILTLMYQCMQDKMPEVRQSSFALLGDLTKACFQHVKPCIADFMPILGTNLNPEFISVCNNATWAIGEISIQMGIEMQPYIPMVLHQLVEIINRPNTPKTLLENTAITIGRLGYVCPQEVAPMLQQFIRPWCTSLRNIRDNEEKDSAFRGICTMISVNPSGVIQDFIFFCDAVASWINPKDDLRDMFCKILHGFKNQVGDENWRRFSDQFPLPLKERLAAFYGV

binding result [2]: binds
B2: hGFP–CAS (human CAS fused to hGFP) (natural protein)
chain: MELSDANLQTLTEYLKKTLDPDPAIRRPAEKFLESVEGNQNYPLLLLTLLEKSQDNVIKVCASVTFKNYIKRNWRIVEDEPNKICEADRVAIKANIVHLMLSSPEQIQKQLSDAISIIGREDFPQKWPDLLTEMVNRFQSGDFHVINGVLRTAHSLFKRYRHEFKSNELWTEIKLVLDAFALPLTNLFKATIELCSTHANDASALRILFSSLILISKLFYSLNFQDLPEFFEDNMETWMNNFHTLLTLDNKLLQTDDEEEAGLLELLKSQICDNAALYAQKYDEEFQRYLPRFVTAIWNLLVTTGQEVKYDLLVSNAIQFLASVCERPHYKNLFEDQNTLTSICEKVIVPNMEFRAADEEAFEDNSEEYIRRDLEGSDIDTRRRAACDLVRGLCKFFEGPVTGIFSGYVNSMLQEYAKNPSVNWKHKDAAIYLVTSLASKAQTQKHGITQANELVNLTEFFVNHILPDLKSANVNEFPVLKADGIKYIMIFRNQVPKEHLLVSIPLLINHLQAESIVVHTYAAHALERLFTMRGPNNATLFTAAEIAPFVEILLTNLFKALTLPGSSENEYIMKAIMRSFSLLQEAIIPYIPTLITQLTQKLLAVSKNPSKPHFNHYMFEAICLSIRITCKANPAAVVNFEEALFLVFTEILQNDVQEFIPYVFQVMSLLLETHKNDIPSSYMALFPHLLQPVLWERTGNIPALVRLLQAFLERGSNTIASAAADKIPGLLGVFQKLIASKANDHQGFYLLNSIIEHMPPESVDQYRKQIFILLFQRLQNSKTTKFIKSFLVFINLYCIKYGALALQEIFDGIQPKMFGMVLEKIIIPEIQKVSGNVEKKICAVGITKLLTECPPMMDTEYTKLWTPLLQSLIGLFELPEDDTIPDEEHFIDIEDTPGYQTAFSQLAFAGKKEHDPVGQMVNNPKIHLAQSLHKLSTACPGRVPSMVSTSLNAEALQYLQGYLQAASVTLL
